Assay results reported in article PMC6804483 (Acta Pharmaceutica Sinica. B, 2019).
Blank lines part the entries; values can stand above or below the molecule they belong to. [ ]: non-standard residue; d: D form. The star is where a group is joined. 5FAM = O=C1OC2(c3ccc(O)cc3Oc3cc(O)ccc32)c2ccc(C(=O)*)cc21; pT = C[C@@H](OP(=O)(O)O)[C@H](N)C(=O)O

Columns and labels:
[1] = molecular target: T1, PLK2 Polo-box domain (Homo sapiens, UniProt Q9NYY3); test: fluorescence polarization competition with fluorescein-labeled phosphopeptide; format: binding
T1 sequence (Q9NYY3 355-685): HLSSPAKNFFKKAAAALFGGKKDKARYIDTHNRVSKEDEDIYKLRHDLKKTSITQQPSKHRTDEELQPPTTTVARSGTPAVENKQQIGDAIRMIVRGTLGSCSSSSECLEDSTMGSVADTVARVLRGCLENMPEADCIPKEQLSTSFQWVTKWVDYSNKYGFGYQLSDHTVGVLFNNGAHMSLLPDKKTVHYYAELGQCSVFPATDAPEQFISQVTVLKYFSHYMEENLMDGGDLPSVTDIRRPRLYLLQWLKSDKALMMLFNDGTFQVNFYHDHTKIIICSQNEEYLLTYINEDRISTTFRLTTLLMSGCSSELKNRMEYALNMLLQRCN

[2] = molecular target: Polo-like kinase 1 (PLK1) Polo-box domain (Homo sapiens, UniProt P53350); test: microscale thermophoresis with labeled PLK1 PBD; format: binding
Chain of Polo-like kinase 1 (PLK1) Polo-box domain (P53350 326-603): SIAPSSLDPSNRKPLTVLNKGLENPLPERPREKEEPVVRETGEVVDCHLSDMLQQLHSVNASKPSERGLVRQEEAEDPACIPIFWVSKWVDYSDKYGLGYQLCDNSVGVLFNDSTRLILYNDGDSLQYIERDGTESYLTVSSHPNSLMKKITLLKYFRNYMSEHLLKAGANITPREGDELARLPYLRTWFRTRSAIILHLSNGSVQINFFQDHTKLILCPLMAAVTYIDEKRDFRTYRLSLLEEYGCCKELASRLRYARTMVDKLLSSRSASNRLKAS

[3] = molecular target: Polo-box domain (PBD) of human PLK1 (aa 326–603) (human, UniProt P53350 326-603); test: fluorescence polarisation
Chain of Polo-box domain (PBD) of human PLK1 (aa 326–603) (P53350 326-603): as above

[4] = molecular target: T2, Polo-box domain (PBD) of human PLK2 (aa 355–685) (human, UniProt Q9NYY3 355-685); test: fluorescence polarisation
T2 sequence (looked up): T1 sequence (Q9NYY3 355-685)

[5] = molecular target: T3, Polo-box domain (PBD) of human PLK3 (aa 335–646) (human, UniProt Q9H4B4 335-646); test: fluorescence polarisation
T3 sequence (looked up): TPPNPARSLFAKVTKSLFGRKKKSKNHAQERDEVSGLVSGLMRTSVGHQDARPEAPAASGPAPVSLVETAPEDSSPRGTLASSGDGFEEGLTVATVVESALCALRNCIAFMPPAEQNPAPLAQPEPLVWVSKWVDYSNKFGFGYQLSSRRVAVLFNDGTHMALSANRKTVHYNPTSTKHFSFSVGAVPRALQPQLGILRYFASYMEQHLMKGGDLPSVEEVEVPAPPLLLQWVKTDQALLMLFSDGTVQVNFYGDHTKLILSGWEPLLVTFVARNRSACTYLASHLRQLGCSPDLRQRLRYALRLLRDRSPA

IC50 [1]: 44.1 ± 14.4 µM | Kd [2]: 18.9 µM
Molecule: CCOC(=O)c1oc2ccccc2c1CBr [MCC1019, 3-bromomethyl-benzofuran-2-carboxylic acid ethyl ester]

binding result [3]: binds
B1: 5-carboxyfluorescein-GPMQSpTPLNG-OH (peptide)
peptide: 5FAM-GPMQS[pT]PLNG-OH
SMILES: CSCC[C@H](NC(=O)[C@@H]1CCCN1C(=O)CNC(=O)c1ccc2c(c1)C(=O)OC21c2ccc(O)cc2Oc2cc(O)ccc21)C(=O)N[C@@H](CCC(N)=O)C(=O)N[C@@H](CO)C(=O)N[C@H](C(=O)N1CCC[C@H]1C(=O)N[C@@H](CC(C)C)C(=O)N[C@@H](CC(N)=O)C(=O)NCC(=O)O)[C@@H](C)OP(=O)(O)O

binding result [4]: binds
B2: 5-carboxyfluorescein-GPMQTSpTPKNG-OH (peptide)
peptide: 5FAM-GPMQTS[pT]PKNG-OH
SMILES: CSCC[C@H](NC(=O)[C@@H]1CCCN1C(=O)CNC(=O)c1ccc2c(c1)C(=O)OC21c2ccc(O)cc2Oc2cc(O)ccc21)C(=O)N[C@@H](CCC(N)=O)C(=O)N[C@H](C(=O)N[C@@H](CO)C(=O)N[C@H](C(=O)N1CCC[C@H]1C(=O)N[C@@H](CCCCN)C(=O)N[C@@H](CC(N)=O)C(=O)NCC(=O)O)[C@@H](C)OP(=O)(O)O)[C@@H](C)O

binding result [5]: binds
B3: 5-carboxyfluorescein-GPLATSpTPKNG-OH (peptide)
peptide: 5FAM-GPLATS[pT]PKNG-OH
SMILES: CC(C)C[C@H](NC(=O)[C@@H]1CCCN1C(=O)CNC(=O)c1ccc2c(c1)C(=O)OC21c2ccc(O)cc2Oc2cc(O)ccc21)C(=O)N[C@@H](C)C(=O)N[C@H](C(=O)N[C@@H](CO)C(=O)N[C@H](C(=O)N1CCC[C@H]1C(=O)N[C@@H](CCCCN)C(=O)N[C@@H](CC(N)=O)C(=O)NCC(=O)O)[C@@H](C)OP(=O)(O)O)[C@@H](C)O
